Assays:
[1] = biological target: T1, M. hungatei RuBisCO (Mh-RuBisCO) (Methanospirillum hungatei, UniProt Q2FSY4); test: coupled PGK / GAPDH carboxylase assay, NADH at […] nm; turnover only; format: biochemical; conditions: 2 mM RuBP, 50 mM NaHCO3, 20 mM MgCl2, pH 8.0, 25 °C, anaerobic
T1 construct: gene rbcL; recombinant in E. coli C43 (DE3), pET-15b, His6 tag cleaved by thrombin

[2] = biological target: Methanospirillum hungatei phosphoribulokinase (MhPRK) (Methanospirillum hungatei); test: crystal structure; hanging-drop vapour diffusion at 20 °C; 2.5 Å; the asymmetric unit holds two MhPRK protomers (chains A and B) related by approximately two-fold noncrystallographic symmetry
[3] = substrate: Nc1ncnc2c1ncn2[C@@H]1O[C@H](COP(=O)(O)OP(=O)(O)OP(=O)(O)O)[C@@H](O)[C@H]1O; test: purified protein; format: biochemical, Methanospirillum hungatei; conditions: co-substrate Ru5P (2 mM), 10 mM MgCl2, 100 mM KCl, pH 8.0, 25 °C
[4] = substrate: O=C(CO)[C@H](O)[C@H](O)COP(=O)(O)O; test: purified protein; format: biochemical, Methanospirillum hungatei; conditions: co-substrate ATP (2 mM), 10 mM MgCl2, 100 mM KCl, pH 8.0, 25 °C
[5] = substrate: Nc1ncnc2c1ncn2[C@@H]1O[C@H](COP(=O)(O)OP(=O)(O)OP(=O)(O)O)[C@@H](O)[C@H]1O; test: purified protein; format: biochemical, Methanothrix thermoacetophila; conditions: co-substrate Ru5P (2 mM), 10 mM MgCl2, 100 mM KCl, pH 8.0, 25 °C
[6] = substrate: O=C(CO)[C@H](O)[C@H](O)COP(=O)(O)O; test: purified protein; format: biochemical, Methanothrix thermoacetophila; conditions: co-substrate ATP (2 mM), 10 mM MgCl2, 100 mM KCl, pH 8.0, 25 °C
[7] = substrate: Nc1ncnc2c1ncn2[C@@H]1O[C@H](COP(=O)(O)OP(=O)(O)OP(=O)(O)O)[C@@H](O)[C@H]1O; test: purified protein; format: biochemical, Methanothrix soehngenii; conditions: co-substrate Ru5P (2 mM), 10 mM MgCl2, 100 mM KCl, pH 8.0, 25 °C
[8] = substrate: O=C(CO)[C@H](O)[C@H](O)COP(=O)(O)O; test: purified protein; format: biochemical, Methanothrix soehngenii; conditions: co-substrate ATP (2 mM), 10 mM MgCl2, 100 mM KCl, pH 8.0, 25 °C

T1 sequence (Q2FSY4 entry or part of it): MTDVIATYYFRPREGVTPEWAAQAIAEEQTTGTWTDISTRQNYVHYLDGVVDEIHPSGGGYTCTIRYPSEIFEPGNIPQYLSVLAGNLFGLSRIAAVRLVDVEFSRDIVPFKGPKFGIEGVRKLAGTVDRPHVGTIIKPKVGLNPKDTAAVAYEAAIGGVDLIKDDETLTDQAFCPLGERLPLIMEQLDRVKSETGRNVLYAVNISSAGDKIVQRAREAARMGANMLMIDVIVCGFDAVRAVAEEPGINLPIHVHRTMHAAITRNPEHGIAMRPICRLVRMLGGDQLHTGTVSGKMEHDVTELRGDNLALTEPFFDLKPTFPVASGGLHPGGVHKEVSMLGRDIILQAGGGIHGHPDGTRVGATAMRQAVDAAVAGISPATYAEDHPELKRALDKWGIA

Q: Which “coupled PGK / GAPDH carboxylase assay, NADH at 340 nm; turnover only” value [1] does the source give for `O=C(COP(=O)(O)O)[C@H](O)[C@H](O)COP(=O)(O)O` [RuBP] here?
A: M. hungatei RuBisCO was found to have a specific activity for the carboxylase reaction

Q: With “Methanospirillum hungatei phosphoribulokinase (MhPRK) (enzyme)” as the molecule, how does the stoichiometry N [2] read?
A: 2

B1: MhPRK (M. hungatei PRK homologue) (Methanospirillum hungatei JF-1) (protein)
chain: MSQPENFREVIRHSPLVYLIGVAGDSGSGKSTFTRAISDIFGEELVSSITVDDYHLYDRKTRSEMGITPLLHTANNLKLLEENLMDLKAGRTIQKPVYLHDHGTFGEPELFSPTKFIIIEGLHPYATKSLRALYDYTIFVDPERDVKYDWKIRRDMKKRNYDKNEVLREILQREPDYFQYVFPQREVADAVIQISYSSYGKEEGEKRNVYRVMLSMPAQEYCFEDIELNIDLCDLFKKSSHDFSLSCISHTPDSRNMRALVVDGELMPDTIHKIERQIEFQTGISPINIFRGQEHITGTDLVRLILSWQIINGRIALSNHLDQ
notes: recombinant in E. coli C43 (DE3), pET-15b, His6 tag cleaved by thrombin; homodimer; residues up to 323
Q: Which results are given for B1?
A: Km [3]: 20.70 ± 1.70 µM; Km [4]: 280 ± 50 µM

B2: Methanosaeta thermophila PRK homologue (Mtprk) (Methanothrix thermoacetophila PT) (protein)
chain: MRLLEKIRESGRVFVVAVAGDSGSGKTTFTRGIRRLLGEDVVSTFSMDDYHSLDRRQRKTLGITPLRPEANRFDLLAEHLAMLRRGLAIEKPVYDHTTGEIRGPVIFKPSPVIIVEGLHPFYTEELRKLSDFKIFVDPSRAVKRRWKLRRDVGERGYAPEDVMREILEREPDYKLYVDVQKVYAEMVIKIQDSRIPPEWTEIARGSAREKYSVRIIQQILDHPLDEVDLTIDLSRIMRLTEREFSIEFQRDDYYGKRVGVMTLDGEFPLTMIKDLERKLCDFLGRDVPSVTEGCQEDHGSYVNATEMTQLILIWRFLEKIANLAW
notes: recombinant in E. coli C43 (DE3), pET15b, His6 tag, purified as MhPRK (thrombin-cleaved)
Q: What does the source list for B2?
A: Km [5]: 5.66 ± 0.21 µM; Km [6]: 230 ± 50 µM

B3: Methanosaeta concilii PRK homologue (Mcprk) (Methanothrix soehngenii GP6) (protein)
chain: MRSLKDRIRESGRVFVFGIAGDSGSGKTTISRGIRRILGEDMVATFSMDDYHSLDRRQRKERNITPLHPDANQFDLLAEHLEALRRNERIDKPVYDHRTGEISGTVPFGPAPVIIVEGLHPLYTERLRSQIDFKIFVDPSRSVKRLWKIRRDVGERGYETGQVMAEILQREPDYKLYVDIQKIYAQIVIKIQDSRFHPSLLDSQSTLDWYSVRLIMEIMEHPVSEVSMNIDLSKILRRSEHEFSIEFQRDDYYGKRVGIMTMDGEIHQSMISDLEKKLGESLGTDGMISDRREEYVNAIGLAQLILTWNCVEKLDYLLQEEGY
notes: as for B2
Q: Which results are given for B3?
A: Km [7]: 17.91 ± 2.02 µM; Km [8]: 310 ± 80 µM
